Results reported in paper PMC5705219.

Target: PRDM9 chimera: human exons 1-9 joined to the final exon (ZF array, 18 zinc fingers) of the chimpanzee reference PRDM9 allele w11a, C-terminally tagged with HA or V5 (human | chimpanzee)
Assay: co-IP; direct competition: HEK293T transfected with three constructs, Human and Chimp prey with the same epitope tag and Human or Chimp bait with the complementary tag; IP against the bait tag, western against the prey tag; both directions of HA/V5 tagging

fold pull-down efficiency against Human PRDM9 prey on the same Chimp bait: > 2 fold
Substance: PRDM9 chimera: human exons 1-9 joined to the final exon (ZF array, 18 zinc fingers) of the chimpanzee reference PRDM9 allele w11a, C-terminally tagged with HA or V5
